Measurements taken from patent US20240043537A1.

What was measured:
CD3 on T-cells = CD3 on T-cells (UniProt P07766); experiment: cell-based or functional assay
[1] = molecular target: CD3 (as used for the BIACORE kinetics of Table 11) (UniProt P07766); experiment: SPR (BIACORE)
Chain of CD3 (as used for the BIACORE kinetics of Table 11) (P07766 23-126): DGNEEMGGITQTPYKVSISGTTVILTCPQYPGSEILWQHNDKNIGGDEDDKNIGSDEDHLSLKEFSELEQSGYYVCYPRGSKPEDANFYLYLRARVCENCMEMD

Chain of CD3 on T-cells (P07766 23-207): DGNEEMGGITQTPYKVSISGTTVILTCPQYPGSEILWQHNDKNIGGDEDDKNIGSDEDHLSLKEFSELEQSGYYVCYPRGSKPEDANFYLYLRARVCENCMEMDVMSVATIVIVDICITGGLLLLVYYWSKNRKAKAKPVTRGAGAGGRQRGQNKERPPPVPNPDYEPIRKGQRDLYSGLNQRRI

Binder | EC50 of cytolysis at 18 hours (CTL assay, Pan-T-cells and MOLM-13, E:T = 5:1) (CD3 on T-cells) | EC50 of cytolysis at 42 hours (CTL assay, Pan-T-cells and MOLM-13, E:T = 5:1) (CD3 on T-cells) | R: ratio of 18 hour EC50 to DART-A-WT (CTL assay, Pan-T-cells and MOLM-13, E:T = 5:1) (CD3 on T-cells) | R: ratio of 42 hour EC50 to DART-A-WT (CTL assay, Pan-T-cells and MOLM-13, E:T = 5:1) (CD3 on T-cells) | max % CytoTox at 18 hours (CTL assay, Pan-T-cells and MOLM-13, E:T = 5:1) (CD3 on T-cells) | max % CytoTox at 42 hours (CTL assay, Pan-T-cells and MOLM-13, E:T = 5:1) (CD3 on T-cells) | Kd [1] | R (KD ratio to DART-A-WT) [1] | R (ka ratio to DART-A-WT) [1] | R (kd ratio to DART-A-WT) [1] | koff [1] | kon [1]
DART-A-M14 (bispecific antibody) chain 1: DFVMTQSPDSLAVSLGERVTMSCKSSQSLLNSGNQKNYLTWYQQKPGQPPKLLIYWASTRESGVPDRFSGSGSGTDFTLTISSLQAEDVAVYYCQNDYSYPYTFGQGTKLEIKGGGSGGGGEVQLVESGGGLVQPGGSLRLSCAASGFTFSDYAMNWVRQAPGKGLEWVGRIRSKYNNYATYYADSVKDRFTISRDDSKNSLYLQMNSLKTEDTAVYYCVRHGNFGNSYVSWFAYWGQGTLVTVSSGGCGGGKVAALKEKVAALKEKVAALKEKVAALKE chain 2: QAVVTQEPSLTVSPGGTVTLTCRSSTGAVTTSNYANWVQQKPGQAPRGLIGGTNKRAPWTPARFSGSLLGGKAALTITGAQAEDEADYYCALWYSNLWVFGGGTKLTVLGGGGSGGGGEVQLVQSGAELKKPGASVKVSCKASGYTFTDYYMKWVRQAPGQGLEWIGDIIPSNGATFYNQKFKGRVTITVDKSTSTAYMELSSLRSEDTAVYYCARSHLLRASWFAYWGQGTLVTVSSGGCGGGEVAALEKEVAALEKEVAALEKEVAALEK | 0.492 ng/mL | 0.11 ng/mL | 6.2 | 39.3 | 44.7% | 31.4% | 46.6 nM | 5.7 | 0.6 | 3.5 | 0.0143 s⁻¹ | 308000 M⁻¹ s⁻¹
DART-A-M7 (bispecific antibody) chain 1: DFVMTQSPDSLAVSLGERVTMSCKSSQSLLNSGNQKNYLTWYQQKPGQPPKLLIYWASTRESGVPDRFSGSGSGTDFTLTISSLQAEDVAVYYCQNDYSYPYTFGQGTKLEIKGGGSGGGGEVQLVESGGGLVQPGGSLRLSCAASGFTFSTYAMNWVRQAPGKGLEWVGRIRSKYNNYATYYADSVKDRFTISRDDSKNSLYLQMNSLKTEDTAVYYCVRHDNFGNSYVSWFAYWGQGTLVTVSSGGCGGGKVAALKEKVAALKEKVAALKEKVAALKE chain 2: QAVVTQEPSLTVSPGGTVTLTCRSSTGAVTTSNYANWVQQKPGQAPRGLIGGTNKRAPWTPARFSGSLLGGKAALTITGAQAEDEADYYCALWYSNLWVFGGGTKLTVLGGGGSGGGGEVQLVQSGAELKKPGASVKVSCKASGYTFTDYYMKWVRQAPGQGLEWIGDIIPSNGATFYNQKFKGRVTITVDKSTSTAYMELSSLRSEDTAVYYCARSHLLRASWFAYWGQGTLVTVSSGGCGGGEVAALEKEVAALEKEVAALEKEVAALEK | 0.304 ng/mL | 0.03 ng/mL | 3.8 | 10.8 | 41.4% | 32.5% | 22.5 nM | 2.8 | 2 | 5.6 | 0.0229 s⁻¹ | 1.02e+06 M⁻¹ s⁻¹
DART-A-M13 (bispecific antibody) chain 1: DFVMTQSPDSLAVSLGERVTMSCKSSQSLLNSGNQKNYLTWYQQKPGQPPKLLIYWASTRESGVPDRFSGSGSGTDFTLTISSLQAEDVAVYYCQNDYSYPYTFGQGTKLEIKGGGSGGGGEVQLVESGGGLVQPGGSLRLSCAASGFTFSTYAMNWVRQAPGKGLEWVGRIRSKYNNYATYYADSVKDRFTISRDDSKNSLYLQMNSLKTEDTAVYYCVRHGNFGNSYVSWFAEWGQGTLVTVSSGGCGGGKVAALKEKVAALKEKVAALKEKVAALKE chain 2: QAVVTQEPSLTVSPGGTVTLTCRSSTGAVTTSNYANWVQQKPGQAPRGLIGGTNKRAPWTPARFSGSLLGGKAALTITGAQAEDEADYYCALWYSNLWVFGGGTKLTVLGGGGSGGGGEVQLVQSGAELKKPGASVKVSCKASGYTFTDYYMKWVRQAPGQGLEWIGDIIPSNGATFYNQKFKGRVTITVDKSTSTAYMELSSLRSEDTAVYYCARSHLLRASWFAYWGQGTLVTVSSGGCGGGEVAALEKEVAALEKEVAALEKEVAALEK | 1.22 ng/mL | 0.203 ng/mL | 15.5 | 72.3 | 45.1% | 31.5% | 68.6 nM | 8.4 | 0.6 | 5.4 | 0.022 s⁻¹ | 321000 M⁻¹ s⁻¹
DART-A-M19 (bispecific antibody) chain 1: DFVMTQSPDSLAVSLGERVTMSCKSSQSLLNSGNQKNYLTWYQQKPGQPPKLLIYWASTRESGVPDRFSGSGSGTDFTLTISSLQAEDVAVYYCQNDYSYPYTFGQGTKLEIKGGGSGGGGEVQLVESGGGLVQPGGSLRLSCAASGFTFSTYAMNWVRQAPGKGLEWVGRIRSKYNNYATYYADSVKDRFTISRDDSKNSLYLQMNSLKTEDTAVYYCVRHKNIGNSYVSWFAYWGQGTLVTVSSGGCGGGKVAALKEKVAALKEKVAALKEKVAALKE chain 2: QAVVTQEPSLTVSPGGTVTLTCRSSTGAVTTSNYANWVQQKPGQAPRGLIGGTNKRAPWTPARFSGSLLGGKAALTITGAQAEDEADYYCALWYSNLWVFGGGTKLTVLGGGGSGGGGEVQLVQSGAELKKPGASVKVSCKASGYTFTDYYMKWVRQAPGQGLEWIGDIIPSNGATFYNQKFKGRVTITVDKSTSTAYMELSSLRSEDTAVYYCARSHLLRASWFAYWGQGTLVTVSSGGCGGGEVAALEKEVAALEKEVAALEKEVAALEK | 0.68 ng/mL | 0.11 ng/mL | 8.6 | 39.1 | 41% | 32.8% | 54.6 nM | 6.7 | 1.5 | 10 | 0.0411 s⁻¹ | 753000 M⁻¹ s⁻¹
DART-A-M12 (bispecific antibody) chain 1: DFVMTQSPDSLAVSLGERVTMSCKSSQSLLNSGNQKNYLTWYQQKPGQPPKLLIYWASTRESGVPDRFSGSGSGTDFTLTISSLQAEDVAVYYCQNDYSYPYTFGQGTKLEIKGGGSGGGGEVQLVESGGGLVQPGGSLRLSCAASGFTFSTYAMNWVRQAPGKGLEWVGRIRSKYNNYATYYADSVKDRFTISRDDSKNSLYLQMNSLKTEDTAVYYCVRHGNFGNSYVSYFAYWGQGTLVTVSSGGCGGGKVAALKEKVAALKEKVAALKEKVAALKE chain 2: QAVVTQEPSLTVSPGGTVTLTCRSSTGAVTTSNYANWVQQKPGQAPRGLIGGTNKRAPWTPARFSGSLLGGKAALTITGAQAEDEADYYCALWYSNLWVFGGGTKLTVLGGGGSGGGGEVQLVQSGAELKKPGASVKVSCKASGYTFTDYYMKWVRQAPGQGLEWIGDIIPSNGATFYNQKFKGRVTITVDKSTSTAYMELSSLRSEDTAVYYCARSHLLRASWFAYWGQGTLVTVSSGGCGGGEVAALEKEVAALEKEVAALEKEVAALEK | 0.372 ng/mL | 0.067 ng/mL | 4.7 | 24 | 49.7% | 31.5% | 12.8 nM | 1.6 | 1.7 | 2.7 | 0.0111 s⁻¹ | 866000 M⁻¹ s⁻¹
DART-A-M17 (bispecific antibody) chain 1: DFVMTQSPDSLAVSLGERVTMSCKSSQSLLNSGNQKNYLTWYQQKPGQPPKLLIYWASTRESGVPDRFSGSGSGTDFTLTISSLQAEDVAVYYCQNDYSYPYTFGQGTKLEIKGGGSGGGGEVQLVESGGGLVQPGGSLRLSCAASGFTFSTTAMNWVRQAPGKGLEWVGRIRSKYNNYATYYADSVKDRFTISRDDSKNSLYLQMNSLKTEDTAVYYCVRHGNFGNSYVSWFAYWGQGTLVTVSSGGCGGGKVAALKEKVAALKEKVAALKEKVAALKE chain 2: QAVVTQEPSLTVSPGGTVTLTCRSSTGAVTTSNYANWVQQKPGQAPRGLIGGTNKRAPWTPARFSGSLLGGKAALTITGAQAEDEADYYCALWYSNLWVFGGGTKLTVLGGGGSGGGGEVQLVQSGAELKKPGASVKVSCKASGYTFTDYYMKWVRQAPGQGLEWIGDIIPSNGATFYNQKFKGRVTITVDKSTSTAYMELSSLRSEDTAVYYCARSHLLRASWFAYWGQGTLVTVSSGGCGGGEVAALEKEVAALEKEVAALEKEVAALEK | 1.28 ng/mL | 0.126 ng/mL | 16.2 | 44.9 | 44.2% | 30.7% | 57.2 nM | 7 | 1.7 | 12 | 0.0478 s⁻¹ | 837000 M⁻¹ s⁻¹
DART-A-M15 (bispecific antibody) chain 1: DFVMTQSPDSLAVSLGERVTMSCKSSQSLLNSGNQKNYLTWYQQKPGQPPKLLIYWASTRESGVPDRFSGSGSGTDFTLTISSLQAEDVAVYYCQNDYSYPYTFGQGTKLEIKGGGSGGGGEVQLVESGGGLVQPGGSLRLSCAASGFTFSEYAMNWVRQAPGKGLEWVGRIRSKYNNYATYYADSVKDRFTISRDDSKNSLYLQMNSLKTEDTAVYYCVRHGNFGNSYVSWFAYWGQGTLVTVSSGGCGGGKVAALKEKVAALKEKVAALKEKVAALKE chain 2: QAVVTQEPSLTVSPGGTVTLTCRSSTGAVTTSNYANWVQQKPGQAPRGLIGGTNKRAPWTPARFSGSLLGGKAALTITGAQAEDEADYYCALWYSNLWVFGGGTKLTVLGGGGSGGGGEVQLVQSGAELKKPGASVKVSCKASGYTFTDYYMKWVRQAPGQGLEWIGDIIPSNGATFYNQKFKGRVTITVDKSTSTAYMELSSLRSEDTAVYYCARSHLLRASWFAYWGQGTLVTVSSGGCGGGEVAALEKEVAALEKEVAALEKEVAALEK | 4.16 ng/mL | 0.975 ng/mL | 52.7 | 347 | 42.7% | 32% | 107 nM | 13 | 0.7 | 9.2 | 0.0375 s⁻¹ | 352000 M⁻¹ s⁻¹
